Data reported in the DeepSol protein solubility set.

test: soluble on expression in E. coli; label from the status in PepcDB or PDB records

Soluble on expression in E. coli, not soluble:
FDISVLSVAPLRQGETMKQGIDSAVSLAKAVDNMGYKRIWFAEHHNHDAYASAATVSIVQHILANTKDIRVGSGGIMLPNHSPLIVAEQFGTLETLYPNRVDLALGRAPGTDQKTADVIRRSNHNGVFFFEREVNDILRFVGDKSVQGEVRAYPGIGTHVPVFVLGSSTDSAEIAAKLGLPYAFGAQFSPHSMEEALSIYRENFQPSSYLQEPYVIACINVIAAESIDEASFISASHLQVYIDIYTNNLSKLIPPTENFLESLSQFELEILHSRLGYTIMGDRETIRRELIDFQQMYHADELIVLSNIYELSKEIQSYEILKQVVDELFKKRM
MNRLQGMELFVEVARTLSFGRAAENLAIPKSTLSRQVAELERSVGLRLLSRTTRRVELTEAGQLYFERCQRIVAEARIAHEELQNLVETPSGPLRVNMPADFGTDFLSEAFTEFSRRYPEVTFYLDLASPEHAERVFQTCDVSIEIGDLPDSTHIARLLGVLPAHLYASPDYLARHGEPQHPDDLPRHECIQFRAGTGRVTRWPLNSGERHVEITPGNRFSVNSVSMVRNLATLGAGIAILAPMGNVREDIESGRLKRILPDWLAGPFPVYAVTDTRMLPAKTRIFVEFLMERLSNKTLAGQNNPAFLNLR
VPGILMCEIFIRANQRSYSVQARSLRLHGVATSVRLEQLFWDVLEEIAARDGMRVTQLIERLYDELVQYRGEAANFTSFLRVCCLRYQVLQAEGRIPADATVPIRSLDAQAVLRGLPANLYDSR
WIRTGDGVRLRTVVWPEGAAGTVLIFSGRTEYAEKYGPAAEALRRRGFASATLDWRGQGLSDRSLRDPLVGHVDDFASYQQDVTAFVAALRAQGLPEPFHLLAHSMGGCIGLRALHEGLPVRAACFSAPMWGIRVHAALRIVAAALGALARATGLGHRYVPGTGTRSYVATAAFDTNVLTRDPEMFAWMQEQLVQAPELGLAGPSLDWLRAAFEETARLKRLPAPDLPALCIVGSAEKVVDLEEIQRRMEGWGRGELQIVPGAEHEVMMDRPEVRDAFFDAA
MGSDKIHHHHHHMIELCEVTKTYPIYHGHAQRTILDRINLRVGKGQKWGILGRNGAGKSTLIRLISGAERPNTGNIVRNMTVSWPLAFGGAFQGSLTGRDNTRLICRAYGVDFDKTITMVENFAELGSYLWEPVKSYSSGMSARLAFAISISVEFDCFLIDEALAVGDHRFLQKCNVELFENRGDRAMIIVSHQTNIIRTHCDHAAVLENGHLTVHESVDSAIAAYEAL
MGSDKIHHHHHHMELKARAVGVEIIPKGKIIYYSVPNGDEYERGDLVLVLGDFGLEVGKVLIPPREVVIDEVGYELKAVIRKLTDEDLEQYRKNVEDALKAFQICKQKIKEHGLPMKLLYAKYTFDRTRLIFFFSAEGRVDFRELVRDLAKIFKTRIELRQVGVRDEMKFFGGLGLCGLPTCCSTFLREFTSVTLKHAKKQQMMINPAKISGPCRRLLCCLTYEYDFYEKELEGIPDEGSTITYEGKRYKVVNVNVFLRTVTLFSEQEGEMIKLPFDYFRKGE

Soluble on expression in E. coli, soluble:
MHHHHHHSSGVDLGTENLYFQSMPFPEGKVLDDMEGNQWVLGKKIGSGGFGLIYLAFPTNKPEKDARHVVKVEYQENGPLFSELKFYQRVAKKDCIKKWIERKQLDYLGIPLFYGSGLTEFKGRSYRFMVMERLGIDLQKISGQNGTFKKSTVLQLGIRMLDVLEYIHENEYVHGDIKAANLLLGYKNPDQVYLADYGLSYRYCPNGNHKQYQENPRKGHNGTIEFTSLDAHKGVALSRRSDVEILGYCMLRWLCGKLPWEQNLKDPVAVQTAKTNLLDELPQSVLKWAPSGSSCCEIAQFLVCAHSLAYDEKPNYQALKKILNPHGIPLGPLDFSTKGQSINVH
MSLKALIIMDMTNDFVFEKYEHEGKEYEGRLVAPLGKTIVEPIEALVKKVVNSGTVSLFRISKDHYDAFTNPELELKVAELGIDEVFMTGLVDEVCIYHNTLGFLERGFRTNVVRGCTAPFDPEKGRESLGELDACGTKMVDDIPSDIGVILLLEDEHDENSEEIKSGSWPPHSMKGTPGALTIKPIREALESREGHHHHHH
MSLKRAIIIGATSGIGKEVAQRLLSEGWQIGIAGRRQSALEEFRQIAPEQIKIQSLDVTQEYSAGKLDALIHQLGGMDLFLLSSGIGFQNMELNMEIELNTARTNVEGFTRMVDTAFSYFRNNGGGHLAVISSIAGTKGLGVAPAYSATKRFQNTYIDALEQLSHLQKLDIHFTDIRPGFVATDLLNDGKHYPMLMKTDQVGRDIVRALHRKQRVAIIDGRYRILVFFWRMIPRWIWKRLPVKTEGHHHHHH
